{
  "source": "paper PMC10325916",
  "about": "“DNA strand asymmetry generated by CpG hemimethylation has opposing effects on CTCF binding”",
  "binders": {"B1": {"name": "Cen-CTCF motif C12 5mC (dsDNA)", "DNA 1": "AGGCCGCCAGAGAGCGCCC", "DNA 2": "GGGCGCTCTCTGGCGGCCT", "modifications": "5mC motif strand C12"}, "B2": {"name": "Cen-CTCF motif strand 5hmC (dsDNA)", "DNA 1": "AGGCCGCCAGAGAGCGCCC", "DNA 2": "GGGCGCTCTCTGGCGGCCT", "modifications": "5hmC motif strand"}, "B3": {"name": "H19 opposite C2 5mC (dsDNA)", "DNA 1": "GTTGCCGCGTGGTGGCAG", "DNA 2": "CTGCCACCACGCGGCAAC", "modifications": "5mC opposite strand C2"}, "B4": {"name": "Cen-CTCF unmethylated (dsDNA)", "DNA 1": "AGGCCGCCAGAGAGCGCCC", "DNA 2": "GGGCGCTCTCTGGCGGCCT"}, "B5": {"name": "Telo-CTCF (dsDNA)", "DNA 1": "TCCCCACCAGGGGGAGCAC", "DNA 2": "GTGCTCCCCCTGGTGGGGA"}, "B6": {"name": "Cen-CTCF full 5hmC (dsDNA)", "DNA 1": "AGGCCGCCAGAGAGCGCCC", "DNA 2": "GGGCGCTCTCTGGCGGCCT", "modifications": "5hmC at CpGs, both strands"}, "B7": {"name": "Cen-CTCF motif C2 5mC (dsDNA)", "DNA 1": "AGGCCGCCAGAGAGCGCCC", "DNA 2": "GGGCGCTCTCTGGCGGCCT", "modifications": "5mC motif strand C2"}, "B8": {"name": "Cen-CTCF opposite C2+C12 5mC (dsDNA)", "DNA 1": "AGGCCGCCAGAGAGCGCCC", "DNA 2": "GGGCGCTCTCTGGCGGCCT", "modifications": "5mC opposite strand C2, C12"}, "B9": {"name": "Cen-CTCF motif C12 + opposite C12 5mC (dsDNA)", "DNA 1": "AGGCCGCCAGAGAGCGCCC", "DNA 2": "GGGCGCTCTCTGGCGGCCT", "modifications": "5mC motif C12 and opposite C12"}, "B10": {"name": "Cen-CTCF motif C2 + opposite C12 5mC (dsDNA)", "DNA 1": "AGGCCGCCAGAGAGCGCCC", "DNA 2": "GGGCGCTCTCTGGCGGCCT", "modifications": "5mC motif C2 and opposite C12"}, "B11": {"name": "Cen-CTCF motif C2+C12 5mC (dsDNA)", "DNA 1": "AGGCCGCCAGAGAGCGCCC", "DNA 2": "GGGCGCTCTCTGGCGGCCT", "modifications": "5mC motif strand C2, C12"}, "B12": {"name": "H19 full 5hmC (dsDNA)", "DNA 1": "GTTGCCGCGTGGTGGCAG", "DNA 2": "CTGCCACCACGCGGCAAC", "modifications": "5hmC C2 both strands"}, "B13": {"name": "Cen-CTCF motif C12 + opposite C2 5mC (dsDNA)", "DNA 1": "AGGCCGCCAGAGAGCGCCC", "DNA 2": "GGGCGCTCTCTGGCGGCCT", "modifications": "5mC motif C12 and opposite C2"}, "B14": {"name": "H19 unmethylated (dsDNA)", "DNA 1": "GTTGCCGCGTGGTGGCAG", "DNA 2": "CTGCCACCACGCGGCAAC"}, "B15": {"name": "Cen-CTCF motif C2 + opposite C2 5mC (dsDNA)", "DNA 1": "AGGCCGCCAGAGAGCGCCC", "DNA 2": "GGGCGCTCTCTGGCGGCCT", "modifications": "5mC motif C2 and opposite C2"}, "B16": {"name": "H19 motif strand 5hmC (dsDNA)", "DNA 1": "GTTGCCGCGTGGTGGCAG", "DNA 2": "CTGCCACCACGCGGCAAC", "modifications": "5hmC motif strand C2"}, "B17": {"name": "H19 full methylation (dsDNA)", "DNA 1": "GTTGCCGCGTGGTGGCAG", "DNA 2": "CTGCCACCACGCGGCAAC", "modifications": "5mC C2 both strands"}, "B18": {"name": "Cen-CTCF opposite C2 5mC (dsDNA)", "DNA 1": "AGGCCGCCAGAGAGCGCCC", "DNA 2": "GGGCGCTCTCTGGCGGCCT", "modifications": "5mC opposite strand C2"}, "B19": {"name": "H19 motif C2 5mC (dsDNA)", "DNA 1": "GTTGCCGCGTGGTGGCAG", "DNA 2": "CTGCCACCACGCGGCAAC", "modifications": "5mC motif strand C2"}, "B20": {"name": "Cen-CTCF full methylation (dsDNA)", "DNA 1": "AGGCCGCCAGAGAGCGCCC", "DNA 2": "GGGCGCTCTCTGGCGGCCT", "modifications": "5mC at C2 and C12 CpGs, both strands"}, "B21": {"name": "Cen-CTCF opposite C12 5mC (dsDNA)", "DNA 1": "AGGCCGCCAGAGAGCGCCC", "DNA 2": "GGGCGCTCTCTGGCGGCCT", "modifications": "5mC opposite strand C12"}, "B22": {"name": "Negative control (dsDNA)", "DNA 1": "AAGACGATTCTGGATTGTA", "DNA 2": "TACAATCCAGAATCGTCTT"}},
  "assay_in_all_cases": "fluorescence polarization; 20 mM Tris-HCl pH 7.5, 300 mM NaCl, 5% glycerol, 0.5 mM TCEP, 25 C, 15 min, 5 nM FAM-oligo",
  "key": {"[1]": {"target": "T1, CTCF ZF1-11 (human, UniProt P49711 266-577)", "T1 sequence": "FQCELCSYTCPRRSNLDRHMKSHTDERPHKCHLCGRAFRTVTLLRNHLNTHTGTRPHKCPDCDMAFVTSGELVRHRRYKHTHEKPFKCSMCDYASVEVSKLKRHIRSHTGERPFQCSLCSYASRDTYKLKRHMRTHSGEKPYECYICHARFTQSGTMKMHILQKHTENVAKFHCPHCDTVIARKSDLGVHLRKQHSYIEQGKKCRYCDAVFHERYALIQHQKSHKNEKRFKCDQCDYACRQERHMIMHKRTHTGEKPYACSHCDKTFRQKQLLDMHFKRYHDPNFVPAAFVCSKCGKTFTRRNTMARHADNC", "conditions": "protein: recombinant, tags: 6xHis-SUMO, used tagged and untagged (no change in results)"}, "[2]": {"target": "T1, CTCF ZF1-11", "conditions": "protein: recombinant; tags: 6xHis-SUMO, used tagged and untagged (no change in results); label: FAM on motif strand"}, "[3]": {"target": "T2, CTCF FL (human, UniProt P49711 1-727)", "T2 sequence": "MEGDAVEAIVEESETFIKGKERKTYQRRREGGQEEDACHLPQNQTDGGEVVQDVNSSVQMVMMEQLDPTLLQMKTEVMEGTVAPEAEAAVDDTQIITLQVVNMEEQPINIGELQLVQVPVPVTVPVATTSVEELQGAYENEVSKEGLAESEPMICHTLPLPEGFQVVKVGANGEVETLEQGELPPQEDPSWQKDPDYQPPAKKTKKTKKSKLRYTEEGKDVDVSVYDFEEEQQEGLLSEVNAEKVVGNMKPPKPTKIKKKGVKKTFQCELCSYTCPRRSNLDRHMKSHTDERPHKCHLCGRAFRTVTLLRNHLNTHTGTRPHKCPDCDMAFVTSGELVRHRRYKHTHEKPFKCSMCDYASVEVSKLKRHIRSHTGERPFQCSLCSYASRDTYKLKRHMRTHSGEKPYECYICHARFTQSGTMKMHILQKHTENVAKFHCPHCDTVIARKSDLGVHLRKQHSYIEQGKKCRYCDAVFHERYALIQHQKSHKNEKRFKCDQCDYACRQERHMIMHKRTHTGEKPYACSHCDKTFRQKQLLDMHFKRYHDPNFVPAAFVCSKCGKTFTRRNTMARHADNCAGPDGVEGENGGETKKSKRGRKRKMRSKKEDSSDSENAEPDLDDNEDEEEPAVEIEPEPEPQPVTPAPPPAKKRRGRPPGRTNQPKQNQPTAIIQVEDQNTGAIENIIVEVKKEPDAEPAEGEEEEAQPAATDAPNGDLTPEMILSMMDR", "conditions": "protein: recombinant; tags: 6xHis-SUMO, used tagged or removed (untagged for FL); label: FAM on motif strand"}, "[4]": {"target": "T1, CTCF ZF1-11", "conditions": "protein: recombinant; tags: 6xHis-SUMO, used tagged and untagged (no change in results); label: FAM on motif strand", "remark": "listed apart in the source"}},
  "note": "Values joined by “and” are separate entries in the source; they are usually repeats but may differ in a detail not shown here. Identical values can stand only once.",
  "data": [
    {"binder": "B1", "values": [
      {"measurement": "Kd", "setting": "[1]; label: FAM on motif strand", "result": "428 ± 37", "unit": "nM"}
    ]},
    {"binder": "B2", "values": [
      {"measurement": "binding signal", "setting": "[2]", "result": "~4", "unit": "fold lower affinity vs N2"}
    ]},
    {"binder": "B3", "values": [
      {"measurement": "Kd", "setting": "[1]; label: FAM on motif strand", "result": 89, "unit": "nM"}
    ]},
    {"binder": "B4", "values": [
      {"measurement": "Kd", "setting": "[1]; label: FAM on motif strand", "result": "163 nM and ~200 nM"},
      {"measurement": "Kd", "setting": "[3]", "result": "~200", "unit": "nM"}
    ]},
    {"binder": "B5", "values": [
      {"measurement": "Kd", "setting": "[1]; label: FAM on motif strand", "result": "~5", "unit": "nM"},
      {"measurement": "Kd", "setting": "[3]", "result": "~5", "unit": "nM"}
    ]},
    {"binder": "B6", "values": [
      {"measurement": "binding signal", "setting": "[2]", "result": "~4", "unit": "fold lower affinity vs N2"}
    ]},
    {"binder": "B7", "values": [
      {"measurement": "Kd", "setting": "[1]; label: FAM on motif strand", "result": "949 ± 165", "unit": "nM"}
    ]},
    {"binder": "B8", "values": [
      {"measurement": "Kd", "setting": "[1]; label: FAM on motif strand", "result": "37 ± 2", "unit": "nM"}
    ]},
    {"binder": "B9", "values": [
      {"measurement": "Kd", "setting": "[1]; label: FAM on motif strand", "result": "303 ± 28", "unit": "nM"}
    ]},
    {"binder": "B10", "values": [
      {"measurement": "Kd", "setting": "[1]; label: FAM on motif strand", "result": "839 ± 74", "unit": "nM"}
    ]},
    {"binder": "B11", "values": [
      {"measurement": "Kd", "setting": "[1]; label: FAM on motif strand", "result": "1030 ± 114", "unit": "nM"}
    ]},
    {"binder": "B12", "values": [
      {"measurement": "binding signal", "setting": "[4]", "result": "~2", "unit": "fold lower affinity vs N3"}
    ]},
    {"binder": "B13", "values": [
      {"measurement": "Kd", "setting": "[1]; label: FAM on motif strand", "result": "243 ± 18", "unit": "nM"}
    ]},
    {"binder": "B14", "values": [
      {"measurement": "Kd", "setting": "[1]; label: FAM on motif strand", "result": "149 nM and ~200 nM"},
      {"measurement": "Kd", "setting": "[3]", "result": "~200", "unit": "nM"}
    ]},
    {"binder": "B15", "values": [
      {"measurement": "Kd", "setting": "[1]; label: FAM on motif strand", "result": "799 ± 110", "unit": "nM"}
    ]},
    {"binder": "B16", "values": [
      {"measurement": "binding signal", "setting": "[4]", "result": "~2", "unit": "fold lower affinity vs N3"}
    ]},
    {"binder": "B17", "values": [
      {"measurement": "Kd", "setting": "[1]; label: FAM on motif strand", "result": 294, "unit": "nM"}
    ]},
    {"binder": "B18", "values": [
      {"measurement": "Kd", "setting": "[1]; label: FAM on motif strand", "result": "81 ± 5", "unit": "nM"}
    ]},
    {"binder": "B19", "values": [
      {"measurement": "Kd", "setting": "[1]; label: FAM on motif strand", "result": 346, "unit": "nM"}
    ]},
    {"binder": "B20", "values": [
      {"measurement": "Kd", "setting": "[1]; label: FAM on motif strand", "result": "1080 ± 217", "unit": "nM"}
    ]},
    {"binder": "B21", "values": [
      {"measurement": "Kd", "setting": "[1]; label: FAM on motif strand", "result": "77 ± 5", "unit": "nM"}
    ]},
    {"binder": "B22", "values": [
      {"measurement": "Kd", "setting": "[1]; label: FAM", "result": "~1000", "unit": "nM"}
    ]}
  ]
}
